These results are taken from PMC7380959 (Science Advances, 2020).

The target in this assay is H77 E1E2 (full-length E1E2, wild type) (Hepatitis C virus genotype 1a, isolate …). Kind of assay: ELISA. Background: ELISA stands for enzyme-linked immunosorbent assay.

B1: 212.1.1 IgG (antibody, V domains shown)
VH: QVQLVQSGAEVKKPGSSVKVSCKASGGTLSSYGISWVRQAPGQGLEWLGGSIPILGTSVYAQKFQGRVTMTADESTSTAHMELSSLRFDDTAIYYCAGVREGMAAISGKNAFDIWGQGTMVTVSS
VL: DIQMTQSPSSLSASVGDRVTITCRASQGISNYLAWYQQKPGKVPKLLIYAASTLQSGVPSRFSGSGYGTEFTLTISSLQPEDVATYYCQQHDNLPLTFGGGTKVEIK
Regarding B1, the binding result is “binds”.
